# Assay results as given in PMC8633249 (2021).
# Key:
# [1] = target: T1, AGL55, 55-mer A-domain peptide of PAM_(NS88.2) (Streptococcus pyogenes (GAS isolate …)); assay: ITC; 25°C
# [2] = target: T1, AGL55, 55-mer A-domain peptide of …; assay: ITC; 4°C
# [3] = target: T1, AGL55, 55-mer A-domain peptide of …; assay: ITC; 37°C
binder,measurement,setting,value
"K2hPg, kringle-2 domain of human plasminogen (domain or fragment) YVEFSEECMHGSGENYDGKISKTMSGLECQAWDSQSPHAHGYIPSKFPNKNLKKNYCRNPDRDLRPWCFTTDPNKRWEYCDIPRCAA",Kd,[1],31 nM
same,Kd,[2],2.6 nM
same,Kd,[3],236 nM
